# Measured values from US7235627B2 (Novo Nordisk A/S, priority 1996, dated 2007).
# Legend:
# [1] = target: T1, cloned human GLP-1 receptor (Homo sapiens, UniProt P43220); experiment: biochemical
# [2] = target: T1, cloned human GLP-1 receptor; experiment: cell-based or functional assay
# T1 sequence (P43220 24-463): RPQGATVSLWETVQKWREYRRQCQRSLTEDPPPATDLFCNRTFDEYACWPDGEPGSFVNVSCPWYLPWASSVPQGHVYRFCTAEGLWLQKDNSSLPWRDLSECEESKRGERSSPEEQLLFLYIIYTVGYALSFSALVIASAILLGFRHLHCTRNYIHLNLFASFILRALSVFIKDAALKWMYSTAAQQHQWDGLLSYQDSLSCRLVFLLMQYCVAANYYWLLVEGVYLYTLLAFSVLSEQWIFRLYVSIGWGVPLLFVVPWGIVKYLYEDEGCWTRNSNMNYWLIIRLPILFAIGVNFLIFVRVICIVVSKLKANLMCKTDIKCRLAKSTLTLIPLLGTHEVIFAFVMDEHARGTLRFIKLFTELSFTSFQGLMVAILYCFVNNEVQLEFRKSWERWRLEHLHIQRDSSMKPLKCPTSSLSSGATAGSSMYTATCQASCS
"EC50, pM (stimulation of cAMP formation) [2]",Compound,EC50 [1]
–,"CC[C@H](C)[C@H](NC(=O)[C@H](Cc1ccccc1)NC(=O)[C@H](CCC(=O)O)NC(=O)[C@H](CCCNC(=N)N)NC(=O)[C@H](C)NC(=O)[C@H](C)NC(=O)[C@H](CCC(N)=O)NC(=O)CNC(=O)[C@H](CCC(=O)O)NC(=O)[C@H](CC(C)C)NC(=O)[C@H](Cc1ccc(O)cc1)NC(=O)[C@H](CO)NC(=O)[C@H](CO)NC(=O)[C@@H](NC(=O)[C@H](CC(=O)O)NC(=O)[C@H](CO)NC(=O)[C@@H](NC(=O)[C@H](Cc1ccccc1)NC(=O)[C@@H](NC(=O)CNC(=O)[C@H](CCC(=O)O)NC(=O)[C@H](C)NC(=O)[C@@H](N)Cc1c[nH]cn1)[C@@H](C)O)[C@@H](C)O)C(C)C)C(=O)N[C@@H](C)C(=O)N[C@@H](Cc1c[nH]c2ccccc12)C(=O)N[C@@H](CC(C)C)C(=O)N[C@H](C(=O)N[C@@H](CCCNC(=N)N)C(=O)NCC(=O)N[C@@H](CCCNC(=N)N)C(=O)NCC(=O)N[C@@H](CCCCNC(=O)CCCCCCCCCCC(=O)O)C(=O)O)C(C)C [Example 16, Arg^26,34Lys^38(N^ε-(ω-carboxyundecanoyl))-GLP-1(7–38)-OH]",3.5 pM
8.8 pM,"Arg^26,34Lys^36(N^ε-(ω-carboxyheptanoyl))-GLP-1(7-36)-OH (peptide)",–
3.5 pM,"Arg^26,34Lys^38(N^ε-(ω-carboxyundecanoyl))-GLP-1(7-38)-OH (peptide)",–
60 pM,Arg^34Lys^26(N^ε-(γ-glutamyl(N^α-hexadecanoyl)))-GLP-1(7-37)-OH (peptide),–
